Results from article PMC7909569, “Unique Cellular and Biochemical Features of Human Mitochondrial Peroxiredoxin 3 Establish the Molecular Basis for Its Specific Reaction with Thiostrepton” (Antioxidants, 2021).

Columns and labels:
[1] = target: the molecule itself; assay: SEC-MALS; reduced samples (10 mM DTT), 2 mg/mL (90–93 µM) PRX, 50 mM HEPES, 100 mM NaCl, pH 7.0, 7.5 or 8.0 (PRX3 only pH 7.5 and 8.0); TSK Gel 4000 SW column run without reducing agents; (do)decamer against dimers
[2] = target: the molecule itself; assay: SEC-MALS; peroxide titration: pre-reduced PRX3 (93 µM), DTT removed, pH 8.0, 0 H2O2 (fully reduced)
[3] = target: the molecule itself; assay: SEC-MALS; oxidized samples (1.2 equivalents of H2O2), 2 mg/mL PRX, 50 mM HEPES, 100 mM NaCl, pH 7.5; (do)decamer against dimers
[4] = target: the molecule itself; assay: SEC-MALS; engineered dimers, reduced (10 mM DTT) or oxidized (1.2 equivalents H2O2), 2 mg/mL, all pH values tested (7.0, 7.5, 8.0)
[5] = target: the molecule itself; assay: SEC-MALS; peroxide titration: pre-reduced PRX2 (100 µM), pH 7.4, 100 µM H2O2 (1 equivalence, fully oxidized)
[6] = target: the molecule itself; assay: SEC-MALS; oxidized samples (1.2 equivalents of H2O2), 2 mg/mL PRX, 50 mM HEPES, 100 mM NaCl, pH 8.0; (do)decamer against dimers

B1: Wild-type human PRX1 (enzyme, UniProt Q06830 1-199, looked up)
chain: MSSGNAKIGHPAPNFKATAVMPDGQFKDISLSDYKGKYVVFFFYPLDFTFVCPTEIIAFSDRAEEFKKLNCQVIGASVDSHFCHLAWVNTPKKQGGLGPMNIPLVSDPKRTIAQDYGVLKADEGISFRGLFIIDDKGILRQITVNDLPVGRSVDETLRLVQAFQFTDKHGEVCPAGWKPGSDTIKPDVQKSKEYFSKQK
notes: peroxiredoxin 1 (PRX1), human, wild type, untagged, no extra residues; Tested reduced (DTT) and oxidised to the disulfide (H2O2); also called peroxiredoxin 1; WT PRX1
[1]
  stoichiometry N: 10

B2: Untagged wild-type PRX3 (residues 62–256) (enzyme, human, UniProt P30048 62-256, looked up)
chain: APAVTQHAPYFKGTAVVNGEFKDLSLDDFKGKYLVLFFYPLDFTFVCPTEIVAFSDKANEFHDVNCEVVAVSVDSHFSHLAWINTPRKNGGLGHMNIALLSDLTKQISRDYGVLLEGSGLALRGLFIIDPNGVIKHLSVNDLPVGRSVEETLRLVKAFQYVETHGEVCPANWTPDSPTIKPSPAASKEYFQKVNQ
notes: peroxiredoxin 3 (PRX3), human, mitochondrial, residues 62–256, wild type, untagged; Stored oxidised to the disulfide (1.5 equivalents H2O2); tested reduced, partially oxidised and oxidised; also called peroxiredoxin 3; mitochondrial peroxiredoxin 3; not shown: Intein, N-terminal, cleaved
[2]
  stoichiometry N: 12
[3]
  stoichiometry N: 2

B3: PRX1 C83E (enzyme, human, UniProt Q06830 1-199, looked up)
chain: MSSGNAKIGHPAPNFKATAVMPDGQFKDISLSDYKGKYVVFFFYPLDFTFVCPTEIIAFSDRAEEFKKLNCQVIGASVDSHFEHLAWVNTPKKQGGLGPMNIPLVSDPKRTIAQDYGVLKADEGISFRGLFIIDDKGILRQITVNDLPVGRSVDETLRLVQAFQFTDKHGEVCPAGWKPGSDTIKPDVQKSKEYFSKQK
notes: peroxiredoxin 1 (PRX1), human, with C83E in the dimer-dimer interface, untagged; also called engineered dimer of PRX1; dimeric version of PRX1
[4]
  stoichiometry N: 2

B4: PRX2-T82E (enzyme, human, UniProt P32119 1-198, looked up)
chain: MASGNARIGKPAPDFKATAVVDGAFKEVKLSDYKGKYVVLFFYPLDFTFVCPTEIIAFSNRAEDFRKLGCEVLGVSVDSQFEHLAWINTPRKEGGLGPLNIPLLADVTRRLSEDYGVLKTDEGIAYRGLFIIDGKGVLRQITVNDLPVGRSVDEALRLVQAFQYTDEHGEVCPAGWKPGSDTIKPNVDDSKEYFSKHN
notes: peroxiredoxin 2 (PRX2), human, with T82E in the dimer-dimer interface; The methods call the N-terminal His-tag non-cleavable; also called engineered dimer of PRX2; dimeric version of PRX2
[4]
  stoichiometry N: 2

B5: PRX3-S139E/A142E (enzyme, human, UniProt P30048 62-256, looked up)
chain: APAVTQHAPYFKGTAVVNGEFKDLSLDDFKGKYLVLFFYPLDFTFVCPTEIVAFSDKANEFHDVNCEVVAVSVDSHFEHLEWINTPRKNGGLGHMNIALLSDLTKQISRDYGVLLEGSGLALRGLFIIDPNGVIKHLSVNDLPVGRSVEETLRLVKAFQYVETHGEVCPANWTPDSPTIKPSPAASKEYFQKVNQ
notes: peroxiredoxin 3 (PRX3), human, with S139E and A142E in the dimer-dimer interface; The wild-type construct is residues 62–256; The methods call the N-terminal His-tag non-cleavable; also called engineered dimer of PRX3; PRX3 EE
[4]
  stoichiometry N: 2

B6: Wild-type human PRX2 (enzyme, UniProt P32119 1-198, looked up)
chain: MASGNARIGKPAPDFKATAVVDGAFKEVKLSDYKGKYVVLFFYPLDFTFVCPTEIIAFSNRAEDFRKLGCEVLGVSVDSQFTHLAWINTPRKEGGLGPLNIPLLADVTRRLSEDYGVLKTDEGIAYRGLFIIDGKGVLRQITVNDLPVGRSVDEALRLVQAFQYTDEHGEVCPAGWKPGSDTIKPNVDDSKEYFSKHN
notes: peroxiredoxin 2 (PRX2), human, wild type, untagged, no extra residues; Tested reduced (DTT) and oxidised to the disulfide (H2O2); also called peroxiredoxin 2; WT PRX2
[5]
  stoichiometry N: 10
[6]
  stoichiometry N: 2
